{"source": "the nanobody polyreactivity screen of Harvey et al. (2022)", "data": [{"assay": "yeast display, Sf9 membrane polyspecificity reagent, FACS + sequencing; frameworks hold sequencing errors", "procedure,_shortened": "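Using colony PCR, genes from sorted yeast display clones were amplified, then sequenced on MiSeq at 2 × 250 and filtered by CDR length. The clones had been stained with 10% biotinylated, detergent-solubilized Sf9 membrane reagent for 1 hour at 4 °C and sorted by FACS into low and high (top ~1%) gates on anti-HA and streptavidin fluorescence. Polyreactivity labels come from the gate of origin.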", "values": [{"sequence": "QVQLVESGGGLVQAGGSLRLSCAASGRIFDANAMGWYRQAPGKERELVAAITSSGGRTYYADSVKGRFTISRDNAKNTVYLQMNSLKPEDTAVYYCARAGRSWDTLYKYYLEHDYWGQGTQVTVSS", "polyreactivity (PSR sort gate)": "low polyreactivity"}, {"sequence": "QVQLVESGGGLVQAGGSLRLSCAASGRIFDCYAMGWYRQAPRKEREFVASISRRGGSTYYADSVKGRFTISRDNAKNTVYLQMNSLKPEDTAVYYCAADAFFRLDYYYWGQGTQVTVSS", "polyreactivity (PSR sort gate)": "high polyreactivity"}, {"sequence": "QVQLVESGGGLVQAGGSLRLSCAASGRIFDDNTMGWYRQAPGKERELVAVITSGGSTNYADSVKGRFTISRDNAKNTVYLQMNSLKPVDTAVYYCATEPGGYRFDDRAFQYGYWGQGTQVTVSS", "polyreactivity (PSR sort gate)": "low polyreactivity"}, {"sequence": "QVQLVESGGGLVQAGGSLRLSCAASGRIFDDYAMGRYRQAPGKERELVAAISWSGGSTYYADSVKGRFTISRDNAKNTVYLQMNSQKPVDTAVYYCSAPYHSYKRIGYDYWGQGTQVSVSS", "polyreactivity (PSR sort gate)": "low polyreactivity"}, {"sequence": "QVQLVESGGGLVQAGGSLRLSCAASGRIFDDYAMGWYRQAPGKERELVAAISSSGGSTYYADSVKGRFTISRDNAKNTVYLQMNSLKPEDTAVYYCARYPPGRRRYEYWGQGTQVTVSS", "polyreactivity (PSR sort gate)": "high polyreactivity"}, {"sequence": "QVQLVESGGGLVQAGGSLRLSCAASGRIFDFNPMGWYRQAPGKEREVVAAISSGGRTKYADSVKGRFTISRDNAKNTVYLQMNSLKPEDTAVYYCAASGSQPDDYWGQGTQVTVSS", "polyreactivity (PSR sort gate)": "high polyreactivity"}, {"sequence": "QVQLVESGGGLVQAGGSLRLSCAASGRIFDHYAMGWYRQAPGKERELVAAITRSGGITYYADSVKGRFTISRDNAKNTVYLQMNSLKPEDTAVYSCAALSYRYTDKFDYWGQGTQVTVSS", "polyreactivity (PSR sort gate)": "low polyreactivity"}, {"sequence": "QVQLVESGGGLVQAGGSLRLSCAASGRIFDHYARGWYRQAPGKERELVAAINSGGTTNYADSVKGRFTISRDNAKNTVYLQMNSLKPEDTAVYYCAARPRKGQYYFGGNYWGQGTQVTVSS", "polyreactivity (PSR sort gate)": "low polyreactivity"}, {"sequence": "QVQLVESGGGLVQAGGSLRLSCAASGRIFDHYTLGWYRQAPGKERDFVAAISSSGGSTYYADSVKGRFTSSRDTAKNTVYLQLNSLKPEDTAVYDCAAVYHRLWGYDYWGQGPQVTVSS", "polyreactivity (PSR sort gate)": "high polyreactivity"}, {"sequence": "QVQLVESGGGLVQAGGSLRLSCAASGRIFDIYAMGWYRQAPGKERELVAGITSVGSTNYADSVKGRFTISRDNAKNTVYLQMNSLKPEDTAVYYCAKDYLKSAAPSPQGLTHYEYWGQGTQVTVSS", "polyreactivity (PSR sort gate)": "low polyreactivity"}, {"sequence": "QVQLVESGGGLVQAGGSLRLSCAASGRIFDKYTMGWYRQAPGKERELVATITRGGVSMYYADSVKGRFTISRDNAKNTVYLQMNSLKPEDTAVYYCNAVWRLRVRYGYWGQGTQVTVSA", "polyreactivity (PSR sort gate)": "high polyreactivity"}, {"sequence": "QVQLVESGGGLVQAGGSLRLSCAASGRIFDLNAMGWYRQAPGKERELVAAITWSGDSTYYADSVKGRFTISRDNAKNTVYLQMNSLNPEDTAVYYCAAASRTSYSWVDYEFDYWGQGTQVTVSS", "polyreactivity (PSR sort gate)": "low polyreactivity"}, {"sequence": "QVQLVESGGGLVQAGGSLRLSCAASGRIFDLYTMGWYRQAPGKERELVAAIRWSDGSTYYADSVKGRFTISRDNAKNTVYLQMNSLKPEDTAVYYCARDADPNIGGYYYWGQGTQVTVSS", "polyreactivity (PSR sort gate)": "low polyreactivity"}, {"sequence": "QVQLVESGGGLVQAGGSLRLSCAASGRIFDPNAMGWYRQAPGKERELVAAISSRSGSTFYADSVKGRFTISRDNAKNTVYLQMNSLKPEDTAVYYCAAVYRFYKHNYWGQGTQVTVSS", "polyreactivity (PSR sort gate)": "high polyreactivity"}, {"sequence": "QVQLVESGGGLVQAGGSLRLSCAASGRIFDPYAMGWYRQAPGKERELVAAINIGGGTNYADSVKGRFTISRDNAKNTVYLQMNSLKPEDTAVYYCAAPVPAYQFYYRLKSFGRRYDHWGQGTQVTVSS", "polyreactivity (PSR sort gate)": "low polyreactivity"}, {"sequence": "QVQLVESGGGLVQAGGSLRLSCAASGRIFDQNAMGWYRQAPGKERELVAAITWSGGSTNYADSVKVRFTISRDNSKNTVYLLMNSLKTEDTAVYYCNKVSYGYSTYGYWGQGTQVTVSS", "polyreactivity (PSR sort gate)": "low polyreactivity"}, {"sequence": "QVQLVESGGGLVQAGGSLRLSCAASGRIFDRNAMGWYRQATGKERELVARIDPGDDTNYADSVKGRFTISRDNAKNTVYLLMNSLKPEDTAVYYCATDPDYVLYRTAYYEYDYWGHGTQVTVSS", "polyreactivity (PSR sort gate)": "low polyreactivity"}, {"sequence": "QVQLVESGGGLVQAGGSLRLSCAASGRIFDRNTMGWYRQAPGKEREFVAAISGSGGRTYYADSVKGRFTISRDNAKNTVYLQMNSLKPEDTAVYYCAAYYSRQYVGYGYWGQGTQVTVSS", "polyreactivity (PSR sort gate)": "high polyreactivity"}, {"sequence": "QVQLVESGGGLVQAGGSLRLSCAASGRIFDRYAMGWYREAPGKERELVAAISGSGGRTYYADSVKGRFTISRDNAKNTVYLQMNSLKPEDTAVYYCAVKFSLYGQGYPKGDYWGQGTQVTVSS", "polyreactivity (PSR sort gate)": "high polyreactivity"}, {"sequence": "QVQLVESGGGLVQAGGSLRLSCAASGRIFDRYVMGWYRQAPGKERELVAAISQSGGGTYYADSVKGRFTISRDNAKNTVYLQMNSLNPEDTAVYYCAARGTGYHGYGYWGQGSQVTVSS", "polyreactivity (PSR sort gate)": "high polyreactivity"}, {"sequence": "QVQLVESGGGLVQAGGSLRLSCAASGRIFDSNALGWYRQAPGKERELVAAISYDGGSTYYADSVKGRFTISRDNAKNTVYLQMNSLKPEDTAVYYCAADDGWYYYYGYDYWGQGTQVTVSS", "polyreactivity (PSR sort gate)": "low polyreactivity"}, {"sequence": "QVQLVESGGGLVQAGGSLRLSCAASGRIFDSYAMGWYRQAPGKERELVAVISNNDGTTYYADSVKGRFTISRDNAKKTFYLQMNSLKPEDTAVYYCAAEEPLFGYLWYVVTYAGFYDYWGQGTQVTVSS", "polyreactivity (PSR sort gate)": "low polyreactivity"}, {"sequence": "QVQLVESGGGLVQAGGSLRLSCAASGRIFDSYTMGWYRQAPGKERELVAAISRGGGSTYYADSVKGRFTISRDNAKNTVYLQMNSLKPEDTAVYYCAASSYLNSRFKFDYWGQGTQVTVSS", "polyreactivity (PSR sort gate)": "low polyreactivity"}, {"sequence": "QVQLVESGGGLVQAGGSLRLSCAASGRIFDTYAMGWYSQAPGKERELVASISIDGSTYYADSVKGRFTISRDNAKNTVYLQMNSLKPEDTAVYYCNADGRYYTVRFEYWGQGTQVTVSS", "polyreactivity (PSR sort gate)": "low polyreactivity"}, {"sequence": "QVQLVESGGGLVQAGGSLRLSCAASGRIFDVNAMGWYRQAPGKEREFVAAINSRGDSTYYADSVKGRFTISRDNAKNTVYLQMNSLKPEDTAVYYCNVRGYSYSYRFWRYDYWGQGTQVTVSS", "polyreactivity (PSR sort gate)": "high polyreactivity"}, {"sequence": "QVQLVESGGGLVQAGGSLRLSCAASGRIFDVYAMGWYRQAHGKERELVARISDGGGSTYYADSVKGRFTISRDNAKNTVYLQMNSLKPEDTAVYYCASGGDLRLDRRFAFVSRGDYWGQGTQVTVSS", "polyreactivity (PSR sort gate)": "low polyreactivity"}, {"sequence": "QVQLVESGGGLVQAGGSLRLSCAASGRIFDVYAMGWYRQAPGKERELVASISWSDGSTYYADSVKGRFTLSRDNAKNTVYLQMNSLKPEDTAVYYCNALTELGGRWDDYWGQGTQVTVSS", "polyreactivity (PSR sort gate)": "low polyreactivity"}, {"sequence": "QVQLVESGGGLVQAGGSLRLSCAASGRIFDVYAMGWYRQAPVKERELVAAITWRGGTTYYADSVKGRFTISRDNAKNTVYLQMHTLKPEDTAVYYCNADLVYYSKHQKYSYDYWGQGTQVTVSS", "polyreactivity (PSR sort gate)": "low polyreactivity"}, {"sequence": "QVQLVESGGGLVQAGGSLRLSCAASGRIFDVYEMGWYRQAPGKERELVAAMTWSGTSTYYADSVKGRFTISRDNAKNTVYLQMNSLKPEDTAVYYCNALSYGRYLNYRGGMDYWGQGTQVTVSS", "polyreactivity (PSR sort gate)": "high polyreactivity"}, {"sequence": "QVQLVESGGGLVQAGGSLRLSCAASGRIFDYAMGWYRQAPGKERELVAAINSAGSTNYADSVKGRFTISRDNAKNTVYLQMNSLKPEDTAVYYCNTDYGSSYNYWGQGTQVTVSS", "polyreactivity (PSR sort gate)": "high polyreactivity"}]}]}
